Assay results published in patent US20250163140A1 (Kyowa Kirin, published 2025).

T1: Recombinant Human FGF-23 (R&D Systems, Cat No. 2604-FG-025/CF) (human, UniProt Q9GZV9 25-251)
T1 construct: Bought protein
T1 sequence (looked up): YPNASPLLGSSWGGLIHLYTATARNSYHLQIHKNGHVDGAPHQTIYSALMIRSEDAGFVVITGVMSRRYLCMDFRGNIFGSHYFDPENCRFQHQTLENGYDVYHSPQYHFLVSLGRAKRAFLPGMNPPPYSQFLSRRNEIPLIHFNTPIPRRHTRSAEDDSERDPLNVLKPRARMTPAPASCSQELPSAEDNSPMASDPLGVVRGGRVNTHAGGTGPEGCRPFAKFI


Experiments:
[1] = molecular target: T1, Recombinant Human FGF-23 (R&D Systems, …); assay: SPR, antibody captured by anti-human IgG, FGF-23 analyte
Procedure: An antibody prepared at 1 μg/mL was added to a flow cell on which the Anti-human IgG antibody was immobilized at a flow rate of 10 μL/min for 30 seconds.
The measurement was performed using a single cycle method. The obtained sensorgrams were analyzed using Bia Evaluation Software (Global Life Sciences Technologies Japan K.K.), and kinetic constants of the antibodies were calculated.

[2] = molecular target: T1, Recombinant Human FGF-23 (R&D Systems, …); assay: cell-based or functional assay

| Kd [1] [nM] | FGF23 neutralizing activity IC50 (luciferase promoter assay) [2] [µg/mL] | Binder |
| --- | --- | --- |
| 0.017 |  | antibody D105E (antibody, human IgG1, V domains shown, also called modified antibody D105) VH: QVQLVQSGAEVKKPGASVKVSCKASGYTFTNHYMHWVRQAPGQGLEWMGIINPISGSTSNAQKFQGRVTMTRDTSTSTVYMELSSLRSEDTAVYYCARDIVDAFEFWGQGTMVTVSS VL: AIQLTQSPSSLSASVGDRVTITCRASQGISSALVWYQQKPGKAPKLLIYDASSLESGVPSRFSGSGSGTDFTLTISSLQPEDFATYYCQQFNDYFTFGPGTKVDIK |
| 0.262 | 0.0457 | antibody D105K (antibody, human IgG1, V domains shown, also called modified antibody D105) VH: QVQLVQSGAEVKKPGASVKVSCKASGYTFTNHYMHWVRQAPGQGLEWMGIINPISGSTSNAQKFQGRVTMTRDTSTSTVYMELSSLRSEDTAVYYCARDIVDAFKFWGQGTMVTVSS VL: AIQLTQSPSSLSASVGDRVTITCRASQGISSALVWYQQKPGKAPKLLIYDASSLESGVPSRFSGSGSGTDFTLTISSLQPEDFATYYCQQFNDYFTFGPGTKVDIK |
| 0.0734 | 0.0237 | antibody D105I (antibody, human IgG1, V domains shown, also called modified antibody D105) VH: QVQLVQSGAEVKKPGASVKVSCKASGYTFTNHYMHWVRQAPGQGLEWMGIINPISGSTSNAQKFQGRVTMTRDTSTSTVYMELSSLRSEDTAVYYCARDIVDAFIFWGQGTMVTVSS VL: AIQLTQSPSSLSASVGDRVTITCRASQGISSALVWYQQKPGKAPKLLIYDASSLESGVPSRFSGSGSGTDFTLTISSLQPEDFATYYCQQFNDYFTFGPGTKVDIK |
| 0.0975 | 0.0331 | antibody D105G (antibody, human IgG1, V domains shown, also called modified antibody D105) VH: QVQLVQSGAEVKKPGASVKVSCKASGYTFTNHYMHWVRQAPGQGLEWMGIINPISGSTSNAQKFQGRVTMTRDTSTSTVYMELSSLRSEDTAVYYCARDIVDAFGFWGQGTMVTVSS VL: AIQLTQSPSSLSASVGDRVTITCRASQGISSALVWYQQKPGKAPKLLIYDASSLESGVPSRFSGSGSGTDFTLTISSLQPEDFATYYCQQFNDYFTFGPGTKVDIK |
| 0.178 | > 0.1 | antibody D105F (antibody, human IgG1, V domains shown, also called modified antibody D105) VH: QVQLVQSGAEVKKPGASVKVSCKASGYTFTNHYMHWVRQAPGQGLEWMGIINPISGSTSNAQKFQGRVTMTRDTSTSTVYMELSSLRSEDTAVYYCARDIVDAFFFWGQGTMVTVSS VL: AIQLTQSPSSLSASVGDRVTITCRASQGISSALVWYQQKPGKAPKLLIYDASSLESGVPSRFSGSGSGTDFTLTISSLQPEDFATYYCQQFNDYFTFGPGTKVDIK |
| 0.0639 | 0.0256 | antibody D105L (antibody, human IgG1, V domains shown, also called modified antibody D105) VH: QVQLVQSGAEVKKPGASVKVSCKASGYTFTNHYMHWVRQAPGQGLEWMGIINPISGSTSNAQKFQGRVTMTRDTSTSTVYMELSSLRSEDTAVYYCARDIVDAFLFWGQGTMVTVSS VL: AIQLTQSPSSLSASVGDRVTITCRASQGISSALVWYQQKPGKAPKLLIYDASSLESGVPSRFSGSGSGTDFTLTISSLQPEDFATYYCQQFNDYFTFGPGTKVDIK |
| 0.143 | 0.0467 | antibody D105H (antibody, human IgG1, V domains shown, also called modified antibody D105) VH: QVQLVQSGAEVKKPGASVKVSCKASGYTFTNHYMHWVRQAPGQGLEWMGIINPISGSTSNAQKFQGRVTMTRDTSTSTVYMELSSLRSEDTAVYYCARDIVDAFHFWGQGTMVTVSS VL: AIQLTQSPSSLSASVGDRVTITCRASQGISSALVWYQQKPGKAPKLLIYDASSLESGVPSRFSGSGSGTDFTLTISSLQPEDFATYYCQQFNDYFTFGPGTKVDIK |
| 0.671 | > 0.1 | antibody D105M (antibody, human IgG1, V domains shown, also called modified antibody D105) VH: QVQLVQSGAEVKKPGASVKVSCKASGYTFTNHYMHWVRQAPGQGLEWMGIINPISGSTSNAQKFQGRVTMTRDTSTSTVYMELSSLRSEDTAVYYCARDIVDAFMFWGQGTMVTVSS VL: AIQLTQSPSSLSASVGDRVTITCRASQGISSALVWYQQKPGKAPKLLIYDASSLESGVPSRFSGSGSGTDFTLTISSLQPEDFATYYCQQFNDYFTFGPGTKVDIK |
